This passage reports GFP positive cells after transduction of activated lymphocytes (GFP vector) results from patent US20230167158A1.

This experiment has as its target human CD3 on activated lymphocytes (human). The experiment in a line: cell-based or functional assay.

OKT3-CD8a-VSVG showed a GFP positive cells after transduction of activated lymphocytes (GFP vector) of over 50%.
In turn, OKT3-VSVG returned a GFP positive cells after transduction of activated lymphocytes (GFP vector) of 7%.
